Source: the supplement of paper PMC7125110
± gives the standard error. For some of these results: This sample holds only a part of the variants without activity.

B1: glmS ribozyme (parent)
chain: AUAAAAGCGCCAGAACUACAGAAAUGUAGUUGACGAGGAGGAGGUUUAUCGAAUUUUCGGCGGAUGCCUCCAAA

Legend:
Conditions in all cases: with glucosamine-6-phosphate
[1] = variants of: B1; assay: kcat; higher = faster cleavage; RNA array
Procedure, shortened: (§1)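 kobs was derived by fitting per-tile medians to one- or two-exponential decays after normalising signals to baseline and to non-cleaving reference variants. Those signals came from barcoded ribozyme variants transcribed in situ by E. coli RNA polymerase on sequenced MiSeq chips, followed through a hybridised Cy3 probe at 37 °C and imaged over ~14 h. Glucosamine-6-phosphate (40 μM to 10 mM) in HEPES/KCl/Mg(OAc)2 buffer was flowed in. Weighted Michaelis–Menten fits across concentrations then gave kcat and KM.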

[2] = variants of: B1; assay: self-cleavage kobs at 640 uM GlcN6P; higher = faster cleavage; RNA array
Procedure, shortened: as §1

[3] = variants of: B1; assay: KM; higher = weaker cofactor use; RNA array
Procedure, shortened: as §1

[4] = variants of: B1; assay: self-cleavage kobs at 160 uM GlcN6P; higher = faster cleavage; RNA array
Procedure, shortened: as §1

[5] = variants of: B1; assay: self-cleavage kobs at 2500 uM GlcN6P; higher = faster cleavage; RNA array
Procedure, shortened: as §1

[6] = variants of: B1; assay: self-cleavage kobs at 10000 uM GlcN6P; higher = faster cleavage; RNA array
Procedure, shortened: as §1

[7] = variants of: B1; assay: self-cleavage kobs at 40 uM GlcN6P; higher = faster cleavage; RNA array
Procedure, shortened: as §1

Variant: U54C G63U
- kcat [1]: < 1e-05 s⁻¹
- self-cleavage kobs at 640 uM GlcN6P [2]: < 1e-05 s⁻¹

Variant: C58A C68U
- kcat [1]: 0.000273 ± 5.2e-05 s⁻¹
- KM [3]: 2100 ± 790 µM
- self-cleavage kobs at 160 uM GlcN6P [4]: 3.66e-05 ± 1e-05 s⁻¹
- self-cleavage kobs at 640 uM GlcN6P [2]: 6.75e-05 ± 7e-06 s⁻¹
- self-cleavage kobs at 2500 uM GlcN6P [5]: 0.000129 ± 1.2e-05 s⁻¹
- self-cleavage kobs at 10000 uM GlcN6P [6]: 0.000251 ± 2.3e-05 s⁻¹

Variant: U55A C70G
- kcat [1]: 0.000118 ± 1.5e-05 s⁻¹
- self-cleavage kobs at 40 uM GlcN6P [7]: 3.74e-05 ± 7.5e-06 s⁻¹
- self-cleavage kobs at 160 uM GlcN6P [4]: 0.000102 ± 1.2e-05 s⁻¹
- self-cleavage kobs at 640 uM GlcN6P [2]: 0.000148 ± 1.6e-05 s⁻¹
- self-cleavage kobs at 2500 uM GlcN6P [5]: 0.000117 ± 1.2e-05 s⁻¹
- self-cleavage kobs at 10000 uM GlcN6P [6]: 0.000101 ± 9.9e-06 s⁻¹

Variant: U54C U55C
- kcat [1]: 0.014 ± 0.0045 s⁻¹
- KM [3]: 2720 ± 1100 µM
- self-cleavage kobs at 40 uM GlcN6P [7]: 0.000294 ± 4.1e-05 s⁻¹
- self-cleavage kobs at 160 uM GlcN6P [4]: 0.000636 ± 8.9e-05 s⁻¹
- self-cleavage kobs at 640 uM GlcN6P [2]: 0.00279 ± 0.00037 s⁻¹
- self-cleavage kobs at 2500 uM GlcN6P [5]: 0.00663 ± 0.0011 s⁻¹
- self-cleavage kobs at 10000 uM GlcN6P [6]: 0.0111 ± 0.0019 s⁻¹

Variant: C58A C67U
- kcat [1]: 0.000215 ± 1.7e-05 s⁻¹
- KM [3]: 1370 ± 290 µM
- self-cleavage kobs at 640 uM GlcN6P [2]: 6.4e-05 ± 1e-05 s⁻¹
- self-cleavage kobs at 2500 uM GlcN6P [5]: 0.000161 ± 2e-05 s⁻¹
- self-cleavage kobs at 10000 uM GlcN6P [6]: 0.000182 ± 1.7e-05 s⁻¹

Variant: U54A G59A
- kcat [1]: 6.69e-05 ± 7.1e-06 s⁻¹
- KM [3]: 4220 ± 1300 µM
- self-cleavage kobs at 10000 uM GlcN6P [6]: 4.72e-05 ± 7.4e-06 s⁻¹

Variant: U54A G59U
- kcat [1]: 0.000197 ± 2.9e-05 s⁻¹
- self-cleavage kobs at 10000 uM GlcN6P [6]: 5.84e-05 ± 1e-05 s⁻¹

Variant: U57A G66A
- kcat [1]: 0.000171 ± 2.8e-05 s⁻¹
- KM [3]: 4040 ± 1400 µM
- self-cleavage kobs at 2500 uM GlcN6P [5]: 6.97e-05 ± 2.3e-05 s⁻¹
- self-cleavage kobs at 10000 uM GlcN6P [6]: 0.00012 ± 3.2e-05 s⁻¹

Variant: G51A U54C
- kcat [1]: < 1e-05 s⁻¹

Variant: G63A U69A
- kcat [1]: 4.23e-05 ± 1.2e-05 s⁻¹
- self-cleavage kobs at 160 uM GlcN6P [4]: 5.41e-05 ± 2e-05 s⁻¹

Variant: G63A U69G
- kcat [1]: 6.54e-05 ± 2.8e-05 s⁻¹
- self-cleavage kobs at 160 uM GlcN6P [4]: 8.37e-05 ± 2.7e-05 s⁻¹
- self-cleavage kobs at 640 uM GlcN6P [2]: 0.000116 ± 3.3e-05 s⁻¹
- self-cleavage kobs at 2500 uM GlcN6P [5]: 5.94e-05 ± 2.5e-05 s⁻¹

Variant: C50G C71G
- kcat [1]: 0.000204 ± 3.9e-05 s⁻¹
- self-cleavage kobs at 40 uM GlcN6P [7]: 0.000109 ± 9.6e-06 s⁻¹
- self-cleavage kobs at 160 uM GlcN6P [4]: 0.000249 ± 4.4e-05 s⁻¹
- self-cleavage kobs at 640 uM GlcN6P [2]: 0.000149 ± 2.4e-05 s⁻¹
- self-cleavage kobs at 2500 uM GlcN6P [5]: 0.000242 ± 3.1e-05 s⁻¹

Variant: C61U G62A
- kcat [1]: < 1e-05 s⁻¹
- self-cleavage kobs at 160 uM GlcN6P [4]: < 1e-05 s⁻¹
- self-cleavage kobs at 640 uM GlcN6P [2]: < 1e-05 s⁻¹
- self-cleavage kobs at 10000 uM GlcN6P [6]: < 1e-05 s⁻¹

Variant: A52C C67G
- kcat [1]: 1.74e-05 ± 6.9e-06 s⁻¹

Variant: A52C U54A
- kcat [1]: 1.15e-05 ± 1.5e-06 s⁻¹
- KM [3]: 368 ± 130 µM

Variant: A52G U69C
- kcat [1]: 0.000343 ± 3.8e-05 s⁻¹
- KM [3]: 425 ± 160 µM
- self-cleavage kobs at 640 uM GlcN6P [2]: 0.000215 ± 4.5e-05 s⁻¹
- self-cleavage kobs at 2500 uM GlcN6P [5]: 0.000269 ± 5.7e-05 s⁻¹
- self-cleavage kobs at 10000 uM GlcN6P [6]: 0.000381 ± 0.00011 s⁻¹

Variant: A53C C58A
- kcat [1]: 5.04e-05 ± 1.4e-05 s⁻¹
- self-cleavage kobs at 2500 uM GlcN6P [5]: 1.94e-05 ± 7.6e-06 s⁻¹
- self-cleavage kobs at 10000 uM GlcN6P [6]: 3.91e-05 ± 8.6e-06 s⁻¹

Variant: A53C C58G
- kcat [1]: 1.56e-05 ± 5.2e-06 s⁻¹

Variant: A53C C58U
- kcat [1]: 3.83e-05 ± 9.3e-06 s⁻¹
- self-cleavage kobs at 40 uM GlcN6P [7]: < 1e-05 s⁻¹
- self-cleavage kobs at 160 uM GlcN6P [4]: < 1e-05 s⁻¹

Variant: U57G C71U
- kcat [1]: 6.07e-05 ± 3e-05 s⁻¹
- self-cleavage kobs at 640 uM GlcN6P [2]: 3.26e-05 ± 1.2e-05 s⁻¹
- self-cleavage kobs at 2500 uM GlcN6P [5]: 1.65e-05 ± 8e-06 s⁻¹
- self-cleavage kobs at 10000 uM GlcN6P [6]: 4.47e-05 ± 6.6e-06 s⁻¹
